Data published in patent US5710126A, “T cell epitopes of ryegrass pollen allergen” (ImmuLogic Pharmaceutical Corporation, priority 1995, dated 1998).

How the values were obtained:
[1] = system: human basophil mediator release; experiment: Histamine release assay on whole blood of a ryegrass allergic individual; format: cell-based; conditions: one ryegrass allergic individual; 37° C., 30 minutes; FIG. 12
Description: A histamine release assay was performed on one ryegrass allergic individual, using Lol p SPE and rLol p V as the added antigens. This assay is a measure of IgE reactivity through human basophil mediator release, and it is based on the detection of an acylated derivative of histamine using a specific monoclonal antibody (Morel, A. M. and Delaage, M. A.; 1988, J. Allergy Clin. Immunol. 82:646-654). The reagents for this radioimmunoassay are sold as a kit by Amac Inc. (Westbrook, Me.). Whole heparinized blood drawn from a grass allergic individual and then 200 μl aliquots were mixed with an equal amount of the grass antigens SPE and rLol p V at various concentrations or the diluent, PACM buffer (25 mM PIPES, 100 mM NaCl, 5 mM KCL, 4 mM CaCl2, 1 mM MgCl2, 0.003% HSA, pH7.3) in 1.5 ml polypropylene. The release reactions were carried out at 37° C. for 30 minutes. After this incubation, the samples were centrifuged at 1500 RPM for 3 minutes and the supernatants removed. For the total histamine release, 0.1 ml of blood was added to 0.9 ml of PACM buffer, vortexed, and then boiled for 3 minutes. The samples were spun at 13000 RPM and the supernatant removed for analysis. Duplicate samples were used to measure total release. All of the supernatants are diluted 1:4 in acylation buffer and the remainder of the assay is performed according to the manufacturer's instructions.

human IgE = experiment: Direct ELISA of human IgE binding to coated antigen
Description: (§1) To examine the importance of Lol p V, both direct and competition ELISA assays were performed. In the direct ELISA, 100 μl of 10 μg/ml of antigen in Phosphate Buffered Saline, pH 7.4 (PBS) was used to coat Immulon II (Dynatech, Chantilly, Va.) 96 well plates for 4 hours at room temperature (RT) or overnight (O/N) at 4° C. In between each step the plates were washed 3× with PBS-T. The excess coating antigen(s) was removed and the wells blocked with 300 μl/well 0.5% gelatin+1 mg/ml PVP in PBS for 1 hour at RT. Serially diluted patient plasma or the diluent PBS+0.05% Tween^-20 was incubated in at 100 μl/well in duplicate wells overnight at 4° C. […] Plates were read on a MR7000 plate reader (Dynatech, Chantilly, Va.) with a 450 nm filter. The absorbance levels of duplicate wells were averaged. The results were graphed as absorbance vs. dilution. […] The results are plotted as the absorbance vs. the log of the concentration of competing antigen.
For the direct ELISA, wells were coated with either soluble pollen extract (SPE) of ryegrass pollen or rLol p V (purified native Lol p V may have a small amount of Lol p I; use of recombinant material assures that the IgE binding is only to Lol p V ) and human IgE antibody binding to these antigens was analyzed. […]

[2] = system: T cell lines from grass-allergic patients primed in vitro with affinity purified Lol p V; experiment: T cell proliferation (tritiated thymidine uptake) of Lol p V-primed T cell lines restimulated with peptides or proteins; format: cell-based, human; conditions: one allergic patient; results not shown; 2-50 μg/ml antigen
Text: As discussed in Example 2, human T cell stimulating activity can be tested by culturing T cells obtained from an individual sensitive to Lol p V allergen, (i.e., an individual who has an IgE mediated immune response to Lol p V allergen) with a peptide derived from the allergen and determining whether proliferation of T cells occurs in response to the peptide as measured, e.g., by cellular uptake of tritiated thymidine. Stimulation indices for responses by T cells to peptides can be calculated as the maximum CPM in response to a peptide divided by the control CPM. A stimulation index (S.I.) equal to or greater than two times the background level is considered "positive". […]
In addition, preferred peptides have a positivity index (P.I.) of at least about 60, more preferably about 100, more preferably at least about 200 and most preferably at least about 300. The positivity index for a peptide is determined by multiplying the mean T cell stimulation index by the percent of individuals, in a population of individuals sensitive to ryegrass pollen (e.g., preferably a population of at least 15 individuals,more preferably a population of at least 30 individuals or more), who have a T cell stimulation index to such peptide of at least 2.0. […]
This amount of priming antigen was determined to be optimal for the activation of T cells from most grass-allergic patients. […]

[3] = system: human IgE binding to ryegrass pollen SPE; experiment: Competition ELISA for IgE binding to ryegrass pollen SPE; conditions: IgE source PHP-A or individual patient plasma; FIGS. 10 and 11
Description: as §1
In the competition assay, ELISA wells were coated with ryegrass pollen SPE and then allergic patient IgE binding was measured in the presence of competing ryegrass pollen SPE, purified native Lol p V, or rLol p V. The source of allergic IgE in this assay was PHP-A (FIG. 10) or individual patient plasma (FIG. 11). […]

specific IgE antibody = conditions: immunoblotting; Lol p V isoforms; WO 93/04174; cited from earlier work

Molecule | histamine release [1] | IgE binding in direct ELISA (human IgE; IgE source PHP-A, PHP-B or four individual patients, FIGS. 6-9) | IgE binding in direct ELISA to Lol p V peptides and protein (human IgE; IgE source PHP-B, preliminary assay, FIGS. 13a and 13b) | T cell proliferative response of one patient [2] | competition for IgE binding to ryegrass pollen SPE [3] | ryegrass pollen sensitive patients possessing specific IgE antibody that bound (specific IgE antibody) [%]
rLol p V: bacterially expressed recombinant Lol p V encoded by clone 12R, with His6 sequence, purified on Ni chelating column (protein) ADAGYTPAAAATPATPAATPAAAGGKATTDEQKLLEDVNAGFKAAVAAAANAPPADKFKIFEAAFSESSKGLLATSAAKAPGLIPKLDTAYDVAYKAAEGATPEAKYDAFVTALTEALRVIAGALEVHAVKPATEEVPAAKIPTGELQIVDKIDAAFKIAATAANAAPTNDKFTVFESAFNKALNECTGGAYETYKFIPSLEAAVKQAYAATVAAAPEVKYAVFEAALTKAITAMTQAQKAGKPAAAAATGAATVATGAATAAAGAATAAAGGYKA | strong histamine release over a wide concentration range | high IgE binding | very high IgE binding | responds well |  | 
purified native Lol p V: Lol p V allergen affinity purified from ryegrass pollen extract on a mAb 1B9 column (protein, The 5 proline residues at the N-terminus were found to be all hydroxyprolines) ADAGYTPAAAATPATPAATPAAAGGKATTDEQKLLEDVNAGFKAAVAAAANAPPADKFKIFEAAFSESSKGLLATSAAKAPGLIPKLDTAYDVAYKAAEGATPEAKYDAFVTALTEALRVIAGALEVHAVKPATEEVPAAKIPTGELQIVDKIDAAFKIAATAANAAPTNDKFTVFESAFNKALNECTGGAYETYKFIPSLEAAVKQAYAATVAAAPEVKYAVFEAALTKAITAMTQAQKAGKPAAAAATGAATVATGAATAAAGAATAAAGGYKA |  |  |  | responds well |  | 
Lol p V: major Lolium perenne L. ryegrass pollen allergen, Group V allergen (protein) ADAGYTPAAAATPATPAATPAAAGGKATTDEQKLLEDVNAGFKAAVAAAANAPPADKFKIFEAAFSESSKGLLATSAAKAPGLIPKLDTAYDVAYKAAEGATPEAKYDAFVTALTEALRVIAGALEVHAVKPATEEVPAAKIPTGELQIVDKIDAAFKIAATAANAAPTNDKFTVFESAFNKALNECTGGAYETYKFIPSLEAAVKQAYAATVAAAPEVKYAVFEAALTKAITAMTQAQKAGKPAAAAATGAATVATGAATAAAGAATAAAGGYKA |  |  |  |  | a significant portion of IgE against Lol p SPE is specific for Lol p V | 80
